Data taken from ChEMBL document CHEMBL1145552, “Substrate specificity and diastereoselectivity of strictosidine glucosidase, a key enzyme in monoterpene indole alkaloid biosynthesis” (Bioorg Med Chem Lett, 2008).

Columns and labels:
[1] = molecular target: T1, Strictosidine beta-glucosidase (Catharanthus roseus) (UniProt Q9M7N7); experiment: Ratio of relative Vmax to K0.5 of Catharanthus roseus strictosidine glucosidase
T1 sequence (whole entry): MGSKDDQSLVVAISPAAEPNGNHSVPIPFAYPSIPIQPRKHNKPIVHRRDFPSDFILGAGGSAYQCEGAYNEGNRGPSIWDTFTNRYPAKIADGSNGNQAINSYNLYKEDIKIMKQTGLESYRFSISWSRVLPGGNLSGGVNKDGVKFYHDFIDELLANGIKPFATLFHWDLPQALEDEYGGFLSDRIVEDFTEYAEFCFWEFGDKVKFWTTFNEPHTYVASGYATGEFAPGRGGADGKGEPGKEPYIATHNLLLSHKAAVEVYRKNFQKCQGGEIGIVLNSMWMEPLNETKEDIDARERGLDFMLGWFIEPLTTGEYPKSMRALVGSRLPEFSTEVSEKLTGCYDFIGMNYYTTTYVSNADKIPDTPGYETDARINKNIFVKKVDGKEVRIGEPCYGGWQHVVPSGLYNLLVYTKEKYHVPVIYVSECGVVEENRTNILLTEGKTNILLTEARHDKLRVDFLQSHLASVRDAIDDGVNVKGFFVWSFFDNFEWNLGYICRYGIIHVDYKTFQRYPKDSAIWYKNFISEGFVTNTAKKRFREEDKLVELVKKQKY

[2] = substrate: C=C[C@H]1[C@H](O[C@@H]2O[C@H](CO)[C@@H](O)[C@H](O)[C@H]2O)OC=C(C(=O)OC)[C@H]1C[C@@H]1NCCc2c1[nH]c1ccc(OC)cc21; experiment: (§1) Activity of Catharanthus roseus strictosidine glucosidase
[3] = substrate: C=C[C@H]1[C@H](O[C@@H]2O[C@H](CO)[C@@H](O)[C@H](O)[C@H]2O)OC=C(C(=O)OC)[C@H]1C[C@@H]1NCCc2c1[nH]c1cc(C)ccc21; experiment: as §1
[4] = substrate: C=C[C@H]1[C@H](O[C@@H]2O[C@H](CO)[C@@H](O)[C@H](O)[C@H]2O)OC=C(C(=O)OC)[C@H]1C[C@@H]1NCCc2c1[nH]c1cc(OC)ccc21; experiment: as §1
[5] = substrate: C=C[C@H]1[C@H](O[C@@H]2O[C@H](CO)[C@@H](O)[C@H](O)[C@H]2O)OC=C(C(=O)OC)[C@H]1C[C@@H]1NCCc2c1[nH]c1cccc(C)c21; experiment: as §1
[6] = substrate: C=C[C@H]1[C@H](O[C@@H]2O[C@H](CO)[C@@H](O)[C@H](O)[C@H]2O)OC=C(C(=O)OC)[C@H]1C[C@@H]1NCCc2c1[nH]c1cc(F)ccc21; experiment: as §1
[7] = substrate: C=C[C@H]1[C@H](O[C@@H]2O[C@H](CO)[C@@H](O)[C@H](O)[C@H]2O)OC=C(C(=O)OC)[C@H]1C[C@@H]1NCCc2c1[nH]c1ccc(C)cc21; experiment: as §1
[8] = substrate: C=C[C@H]1[C@H](O[C@@H]2O[C@H](CO)[C@@H](O)[C@H](O)[C@H]2O)OC=C(C(=O)OC)[C@H]1C[C@@H]1NCCc2c1[nH]c1ccc(F)cc21; experiment: as §1
[9] = substrate: C=C[C@H]1[C@H](O[C@@H]2O[C@H](CO)[C@@H](O)[C@H](O)[C@H]2O)OC=C(C(=O)OC)[C@H]1C[C@@H]1NCCc2c1[nH]c1c(C)cccc21; experiment: as §1
[10] = substrate: C=C[C@H]1[C@H](O[C@@H]2O[C@H](CO)[C@@H](O)[C@H](O)[C@H]2O)OC=C(C(=O)OC)[C@H]1C[C@@H]1NCCc2c1[nH]c1ccccc21; experiment: as §1

C=C[C@H]1[C@H](O[C@@H]2O[C@H](CO)[C@@H](O)[C@H](O)[C@H]2O)OC=C(C(=O)OC)[C@H]1C[C@@H]1NCCc2c1[nH]c1ccc(OC)cc21
Ratio [1]: 0.3 min⁻¹

C=C[C@H]1[C@H](O[C@@H]2O[C@H](CO)[C@@H](O)[C@H](O)[C@H]2O)OC=C(C(=O)OC)[C@H]1C[C@@H]1NCCc2c1[nH]c1c(C)cccc21
Ratio [1]: 0.3 min⁻¹

C=C[C@H]1[C@H](O[C@@H]2O[C@H](CO)[C@@H](O)[C@H](O)[C@H]2O)OC=C(C(=O)OC)[C@H]1C[C@@H]1NCCc2c1[nH]c1cc(C)ccc21
Ratio [1]: 0.5 min⁻¹

C=C[C@H]1[C@H](O[C@@H]2O[C@H](CO)[C@@H](O)[C@H](O)[C@H]2O)OC=C(C(=O)OC)[C@H]1C[C@@H]1NCCc2c1[nH]c1ccc(C)cc21
Ratio [1]: 0.6 min⁻¹

C=C[C@H]1[C@H](O[C@@H]2O[C@H](CO)[C@@H](O)[C@H](O)[C@H]2O)OC=C(C(=O)OC)[C@H]1C[C@@H]1NCCc2c1[nH]c1cc(F)ccc21
Ratio [1]: 0.7 min⁻¹

C=C[C@H]1[C@H](O[C@@H]2O[C@H](CO)[C@@H](O)[C@H](O)[C@H]2O)OC=C(C(=O)OC)[C@H]1C[C@@H]1NCCc2c1[nH]c1cccc(C)c21
Ratio [1]: 0.2 min⁻¹

C=C[C@H]1[C@H](O[C@@H]2O[C@H](CO)[C@@H](O)[C@H](O)[C@H]2O)OC=C(C(=O)OC)[C@H]1C[C@@H]1NCCc2c1[nH]c1cc(OC)ccc21
Ratio [1]: 0.2 min⁻¹

C=C[C@H]1[C@H](O[C@@H]2O[C@H](CO)[C@@H](O)[C@H](O)[C@H]2O)OC=C(C(=O)OC)[C@H]1C[C@@H]1NCCc2c1[nH]c1ccccc21
Ratio [1]: 1 min⁻¹

C=C[C@H]1[C@H](O[C@@H]2O[C@H](CO)[C@@H](O)[C@H](O)[C@H]2O)OC=C(C(=O)OC)[C@H]1C[C@@H]1NCCc2c1[nH]c1ccc(F)cc21
Ratio [1]: 0.7 min⁻¹

B1: Strictosidine beta-glucosidase (Catharanthus roseus), Q9M7N7 (protein)
chain: MGSKDDQSLVVAISPAAEPNGNHSVPIPFAYPSIPIQPRKHNKPIVHRRDFPSDFILGAGGSAYQCEGAYNEGNRGPSIWDTFTNRYPAKIADGSNGNQAINSYNLYKEDIKIMKQTGLESYRFSISWSRVLPGGNLSGGVNKDGVKFYHDFIDELLANGIKPFATLFHWDLPQALEDEYGGFLSDRIVEDFTEYAEFCFWEFGDKVKFWTTFNEPHTYVASGYATGEFAPGRGGADGKGEPGKEPYIATHNLLLSHKAAVEVYRKNFQKCQGGEIGIVLNSMWMEPLNETKEDIDARERGLDFMLGWFIEPLTTGEYPKSMRALVGSRLPEFSTEVSEKLTGCYDFIGMNYYTTTYVSNADKIPDTPGYETDARINKNIFVKKVDGKEVRIGEPCYGGWQHVVPSGLYNLLVYTKEKYHVPVIYVSECGVVEENRTNILLTEGKTNILLTEARHDKLRVDFLQSHLASVRDAIDDGVNVKGFFVWSFFDNFEWNLGYICRYGIIHVDYKTFQRYPKDSAIWYKNFISEGFVTNTAKKRFREEDKLVELVKKQKY
Km [2]: 370 µM | Vmax [2]: 0.035 mM/min | Km [3]: 92 µM | Vmax [3]: 0.017 mM/min | Km [4]: 430 µM | Vmax [4]: 0.037 mM/min | Km [5]: 220 µM | Vmax [5]: 0.018 mM/min | Km [6]: 120 µM | Vmax [6]: 0.032 mM/min | Km [7]: 71 µM | Vmax [7]: 0.016 mM/min | Km [8]: 150 µM | Vmax [8]: 0.038 mM/min | Km [9]: 140 µM | Vmax [9]: 0.016 mM/min | Km [10]: 220 µM | Vmax [10]: 0.078 mM/min
